Publication PMC3878992
Where two headings read alike, the source gives them in different places.

B1: full-length eIF4G1 (natural protein)
chain: MTDETAHPTQSASKQESAALKQTGDDQQESQQQRGYTNYNNGSNYTQKKPYNSNRPHQQRGGKFGPNRYNNRGNYNGGGSFRGGHMGANSSNVPWTGYYNNYPVYYQPQQMAAAGSAPANPIPVEEKSPVPTKIEITTKSGEHLDLKEQHKAKLQSQERSTVSPQPESKLKETSDSTSTSTPTPTPSTNDSKASSEENISEAEKTRRNFIEQVKLRKAALEKKRKEQLEGSSGNNNIPMKTTPENVEEKGSDKPEVTEKTKPAEEKSAEPEVKQETPAEEGEQGEKGQIKEESTPKVLTFAERLKLKKQQKEREEKTEGKENKEVPVQEETKSAIESAPVPPSEQVKEETEVAETEQSNIDESATTPAIPTKSDEAEAEVEAEAGDAGTKIGLEAEIETTTDETDDGTNTVSHILNVLKDATPIEDVFSFNYPEGIEGPDIKYKKEHVKYTYGPTFLLQFKDKLNVKADAEWVQSTASKIVIPPGMGRGNRSRDSGRFGNNSSRGHDFRNTSVRNMDDRANSRTSSKRRSKRMNDDRRSNRSYTSRRDRERGSYRNEEKREDDKPKEEVAPLVPSANRWVPKFKSKKTEKKLAPDGKTELLDKDEVERKMKSLLNKLTLEMFDAISSEILAIANISVWETNGETLKAVIEQIFLKACDEPHWSSMYAQLCGKVVKELNPDITDETNEGKTGPKLVLHYLVARCHAEFDKGWTDKLPTNEDGTPLEPEMMSEEYYAAASAKRRGLGLVRFIGFLYRLNLLTGKMMFECFRRLMKDLTDSPSEETLESVVELLNTVGEQFETDSFRTGQATLEGSQLLDSLFGILDNIIQTAKISSRIKFKLIDIKELRHDKNWNSDKKDNGPKTIQQIHEEEERQRQLKNNSRSNSRRTNNSSNRHSFRRDAPPASKDSFITTRTYSQRNSQRAPPPKEEPAAPTSTATNMFSALMGESDDEE
B2: eIF4G1 eIF4E-binding domain (4EBD) flanked by additional eIF4G1 sequence (amino acids 348-513) (domain or fragment)
chain: EETEVAETEQSNIDESATTPAIPTKSDEAEAEVEAEAGDAGTKIGLEAEIETTTDETDDGTNTVSHILNVLKDATPIEDVFSFNYPEGIEGPDIKYKKEHVKYTYGPTFLLQFKDKLNVKADAEWVQSTASKIVIPPGMGRGNRSRDSGRFGNNSSRGHDFRNTSV

Legend:
[1] = molecular target: eIF4G1 (Saccharomyces cerevisiae) (UniProt P39935); conditions: cited from earlier work
[2] = molecular target: Cy5-eIF4E(A124C) (S. cerevisiae) (UniProt P07260); assay: single-molecule FRET
[3] = molecular target: Cy5-eIF4E(A124C) (S. cerevisiae) (UniProt P07260); assay: single-molecule FRET; remark: listed apart in the source

Row | Molecule | Kd [1] [nM] | Kd [2] [nM] | Kd [3] [nM]
1 | eIF4E (from UniProt P07260) | < 15 | – | –
2 | B1 | – | 20 | –
3 | B2 | – | 25 | 20
